What all share (test): purified protein
Details in all cases: 160 μM NADPH, pH 6.5 phosphate, 40°C, GST fusion

Substrate in data set [1]: CC(=O)C=O
Substrate in data set [2]: O=CC=O
Substrate in data set [3]: O=C[C@@H](O)CO
Substrate in data set [4]: O=C[C@@H](O)[C@H](O)CO

B1: Err1 from T. reesei (GLD1) (Trichoderma reesei) (protein)
chain: MSSGRTVTLNTGYKIPQIGYGTWQAAPGEVGAGVFEALKVGYRHLDLAKVYGNQKEVGEGIKKALAEVPGLKREDIFITSKLWNNSHKPEDVEPALDDTLAELGLDYLDLYLIHWPVAFAPGADLFPKSEDGSEVQLNQNVSIVQTWKAMTELPKSKVRSVGVSNFTIEHLDAVIEATGVVPAVNQIERHPRLPNQPLIDYCAKKGIIITAYSAFGNNTKGLPLLVSSDEVKAVADNLSKKQGKTVTPAQVILAWSQIGGHTVIPKSVTKARIAENFQEVELDDEAIAALNKLGEKPQRFNIPYTYKPRWNINLFNTEEEKAAAHTAVIKL
For orientation: Km means the concentration of substrate that gives half-maximal velocity. As a reminder, the kcat is the number of substrate molecules converted per active site and unit of time at saturation. By kcat/Km is commonly meant the second-order rate constant that governs catalysis at low substrate concentration. In the case of B1, the Km in the data set “purified protein [1]” was found to be 131.86 ± 1.84 µM; in “purified protein [2]”, 102.74 ± 9.76 µM; in “purified protein [3]” it was 158.04 ± 5.00 µM; in the data set “purified protein [4]” it was 94.07 ± 2.46 µM. For the same protein, the kcat was 72.6 s⁻¹ in the data set “purified protein [1]”, 18.8 s⁻¹ in the data set “purified protein [2]”, 47.9 s⁻¹ in the data set “purified protein [3]” and 29 s⁻¹ in “purified protein [4]”. Also, the kcat/Km in “purified protein [1]” came to 550000 M⁻¹ s⁻¹; in the data set “purified protein [2]”, 183000 M⁻¹ s⁻¹; in “purified protein [3]”, 303000 M⁻¹ s⁻¹; in “purified protein [4]”, 309000 M⁻¹ s⁻¹.

The record behind these values is article PMC3751045.
